How the values were obtained:
[1] = target: the molecule itself; test: native gel or EMSA; native PAGE, NuPAGE 3–8% Tris-acetate, Tris-glycine running buffer, stained with InstantBlue; purified α2M after storage (4°C for months, -20°C, rapid freezing, lyophilization)
Creatine phosphokinase = Creatine phosphokinase (UniProt P00563 1-381); test: cell-based or functional assay
Chain of Creatine phosphokinase (P00563 whole entry): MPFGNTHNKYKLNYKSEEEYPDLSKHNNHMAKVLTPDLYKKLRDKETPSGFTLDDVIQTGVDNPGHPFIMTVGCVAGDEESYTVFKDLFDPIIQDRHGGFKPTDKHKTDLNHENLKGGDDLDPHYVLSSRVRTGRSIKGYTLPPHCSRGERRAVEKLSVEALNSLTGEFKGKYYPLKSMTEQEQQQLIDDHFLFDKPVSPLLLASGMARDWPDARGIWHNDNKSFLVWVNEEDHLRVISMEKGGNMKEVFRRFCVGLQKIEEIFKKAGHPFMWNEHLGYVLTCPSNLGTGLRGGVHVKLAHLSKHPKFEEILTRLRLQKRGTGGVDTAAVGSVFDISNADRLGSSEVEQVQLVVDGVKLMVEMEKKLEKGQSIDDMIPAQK

- decrease in turbidity (absorbance at 595 nm) of CPK (5 μM) at 43°C over 8 hrs with α2M at a molar ratio of α2M-to-CPK of 1:15; α2M rapidly frozen in liquid nitrogen and stored at -20°C for 1 month (Creatine phosphokinase): ~50%
B1: Alpha-2-macroglobulin (natural protein, human, UniProt P01023 24-1474, looked up)
chain: SVSGKPQYMVLVPSLLHTETTEKGCVLLSYLNETVTVSASLESVRGNRSLFTDLEAENDVLHCVAFAVPKSSSNEEVMFLTVQVKGPTQEFKKRTTVMVKNEDSLVFVQTDKSIYKPGQTVKFRVVSMDENFHPLNELIPLVYIQDPKGNRIAQWQSFQLEGGLKQFSFPLSSEPFQGSYKVVVQKKSGGRTEHPFTVEEFVLPKFEVQVTVPKIITILEEEMNVSVCGLYTYGKPVPGHVTVSICRKYSDASDCHGEDSQAFCEKFSGQLNSHGCFYQQVKTKVFQLKRKEYEMKLHTEAQIQEEGTVVELTGRQSSEITRTITKLSFVKVDSHFRQGIPFFGQVRLVDGKGVPIPNKVIFIRGNEANYYSNATTDEHGLVQFSINTTNVMGTSLTVRVNYKDRSPCYGYQWVSEEHEEAHHTAYLVFSPSKSFVHLEPMSHELPCGHTQTVQAHYILNGGTLLGLKKLSFYYLIMAKGGIVRTGTHGLLVKQEDMKGHFSISIPVKSDIAPVARLLIYAVLPTGDVIGDSAKYDVENCLANKVDLSFSPSQSLPASHAHLRVTAAPQSVCALRAVDQSVLLMKPDAELSASSVYNLLPEKDLTGFPGPLNDQDNEDCINRHNVYINGITYTPVSSTNEKDMYSFLEDMGLKAFTNSKIRKPKMCPQLQQYEMHGPEGLRVGFYESDVMGRGHARLVHVEEPHTETVRKYFPETWIWDLVVVNSAGVAEVGVTVPDTITEWKAGAFCLSEDAGLGISSTASLRAFQPFFVELTMPYSVIRGEAFTLKATVLNYLPKCIRVSVQLEASPAFLAVPVEKEQAPHCICANGRQTVSWAVTPKSLGNVNFTVSAEALESQELCGTEVPSVPEHGRKDTVIKPLLVEPEGLEKETTFNSLLCPSGGEVSEELSLKLPPNVVEESARASVSVLGDILGSAMQNTQNLLQMPYGCGEQNMVLFAPNIYVLDYLNETQQLTPEIKSKAIGYLNTGYQRQLNYKHYDGSYSTFGERYGRNQGNTWLTAFVLKTFAQARAYIFIDEAHITQALIWLSQRQKDNGCFRSSGSLLNNAIKGGVEDEVTLSAYITIALLEIPLTVTHPVVRNALFCLESAWKTAQEGDHGSHVYTKALLAYAFALAGNQDKRKEVLKSLNEEAVKKDNSVHWERPQKPKAPVGHFYEPQAPSAEVEMTSYVLLAYLTAQPAPTSEDLTSATNIVKWITKQQNAQGGFSSTQDTVVALHALSKYGAATFTRTGKAAQVTIQSSGTFSSKFQVDNNNRLLLQQVSLPELPGEYSMKVTGEGCVYLQTSLKYNILPEKEEFPFALGVQTLPQTCDEPKAHTSFQISLSVSYTGSRSASNMAIVDVKMVSGFIPLKPTVKMLERSNHVSRTEVSSNHVLIYLDKVSNQTLSLFFTVLQDVPVRDLKPAIVKVYDYYETDEFAIAEYNAPCSKDLGNA
notes: alpha-2-macroglobulin, human, from blood plasma; 720 kDa homotetramer of four 180 kDa subunits, paired by disulfide bonds into dimers; Storage changes the conformation (native, transformed, dimers, higher molecular weight species); also called α2M; native α2M; source: purified from human blood plasma (Zn-charged HiTrap chelating column, Sephacryl S-300 gel filtration)
- binding result [1]: binds
